Results as given in US11584938B2, “Plant EPSPS mutant containing L195P and S247G mutations and encoding gene and use thereof” (GEVOTO LLC, priority 2017, dated 2023).
Substitutions are numbered along the chain they refer to.

B1: R1: rice EPSPS mutant, SEQ ID NO: 30, mutation L214(195)P (protein)
chain: MASNAAAAAAKAEEIVLQPIREISGAVQLPGSKSLSNRILLLSALSEGTTVVDNLLNSEDVHYMLEALKALGLSVEADKVAKRAVVVGCGGKFPVEKDAKEEVQLFLGNAGTAMRPLTAAVTAAGGNATYVLDGVPRMRERPIGDLVVGLKQLGADVDCFLGTECPPVRVKGIGGLPGGKVKLSGSISSQYLSALLMAAPLALGDVEIEIIDKPISIPYVEMTLRLMERFGVKAEHSDSWDRFYIKGGQKYKSPGNAYVEGDASSASYFLAGAAITGGTVTVQGCGTTSLQGDVKFAEVLEMMGAKVTWTDTSVTVTGPPREPYGKKHLKAVDVNMNKMPDVAMTLAVVALFADGPTAIRDVASWRVKETERMVAIRTELTKLGASVEEGPDYCIITPPEKLNITAIDTYDDHRMAMAFSLAACADVPVTIRDPGCTRKTFPNYFDVLSTFVRN
B2: R3: rice EPSPS mutant, SEQ ID NO: 34, mutations L214(195)P and P116(101)S (protein)
chain: B1 chain with P116S

System: transgenic rice plants
Assay: glyphosate resistance of the EPSPS mutant in transgenic rice plants sprayed with Roundup 41% ammonium glyphosate
Format: in vivo, rice (Nipponbare)
In short: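 EPSPS mutant genes were cloned into pGVP1 and introduced into Nipponbare rice embryo-derived calluses via Agrobacterium EHA105 (OD 0.2, 10 min infection, 2–3 days co-culture at 25 °C in the dark). Calluses went through recovery, two 14-day screening rounds at 30 °C, two differentiation rounds and rooting to regenerate transgenic plants.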

[1] = 1× dosage 1060 g/hectare glyphosate sprayed, recorded on 10th day
[2] = 2× dosage 2120 g/hectare sprayed to plants surviving 1×, recorded 10 days later
[3] = 5× dosage 5300 g/hectare sprayed to plants surviving 2×, recorded 10 days later
[4] = 20× dosage 21200 g/hectare sprayed to plants surviving 5×, recorded 10 days later

Molecule | %++&+++ (percentage of plant having medium and high glyphosate resistance to the total number of plants observed) [1] [%] | number of plants denoted by + (low glyphosate resistance) [1] | number of plants denoted by ++ (medium glyphosate resistance) [1] | number of plants denoted by +++ (high glyphosate resistance) [1] | number of plants denoted by − (no glyphosate resistance) [1] | glyphosate resistance / survival of the rice transformed by the EPSPS, in words (1× glyphosate dosage) | %++&+++ (percentage of plant having medium and high glyphosate resistance to the total number of plants observed) [2] [%] | number of plants denoted by + (low glyphosate resistance) [2] | number of plants denoted by ++ (medium glyphosate resistance) [2] | number of plants denoted by +++ (high glyphosate resistance) [2] | number of plants denoted by − (no glyphosate resistance) [2] | glyphosate resistance / survival of the rice transformed by the EPSPS, in words (2× glyphosate dosage) | &++&+++ (percentage of plant having medium and high glyphosate resistance to the total number of plants observed) [3] [%] | number of plants denoted by + (low glyphosate resistance) [3] | number of plants denoted by ++ (medium glyphosate resistance) [3] | number of plants denoted by +++ (high glyphosate resistance) [3] | number of plants denoted by − (no glyphosate resistance) [3] | &++&+++ (percentage of plant having medium and high glyphosate resistance to the total number of plants observed) [4] [%] | number of plants denoted by + (low glyphosate resistance) [4] | number of plants denoted by ++ (medium glyphosate resistance) [4] | further results
B1 | 63.2 | 1 | 1 | 11 | 6 | obviously superior to that of the rice seedlings transformed by R0 | 55.2 | 3 | 10 | 1 | 10 | some of the transgenic rice seedlings transformed by R1 and R4 still survived | 4.2 | 9 | 1 | 0 | 14 | 0.0 | 4 | 0 | glyphosate resistance / survival of the rice transformed by the EPSPS, in words (5× glyphosate dosage): some of the transgenic rice seedlings transformed by R1 and R4 still survived; number of plants denoted by +++ (high glyphosate resistance) [4]: 0; number of plants denoted by − (no glyphosate resistance) [4]: 20; glyphosate resistance / survival of the rice transformed by the EPSPS, in words (20× glyphosate dosage): some of the transgenic rice seedlings transformed by R1 and R4 still survived
B2 | 76.8 | 18 | 39 | 24 | 1 | had relatively high resistance to glyphosate | 7.5 | 59 | 12 | 10 | 1 | had relatively high resistance to glyphosate | 13.4 | 59 | 11 | 0 | 12 | 7.3 | 28 | 6 | number of plants denoted by +++ (high glyphosate resistance) [4]: 0; number of plants denoted by − (no glyphosate resistance) [4]: 48
